Substitutions are numbered along the chain they refer to.
T1: human transmembrane protein 180 (TMEM-180), endogenous on human cancer cells (human, UniProt Q14CX5 1-517)
T1 construct: Membrane protein expressed endogenously by human colon cancer lines (DLD-1 and others), brain tumor lines and colon cancer tissue; also called TMEM-180 on DLD-1 cells
T1 sequence: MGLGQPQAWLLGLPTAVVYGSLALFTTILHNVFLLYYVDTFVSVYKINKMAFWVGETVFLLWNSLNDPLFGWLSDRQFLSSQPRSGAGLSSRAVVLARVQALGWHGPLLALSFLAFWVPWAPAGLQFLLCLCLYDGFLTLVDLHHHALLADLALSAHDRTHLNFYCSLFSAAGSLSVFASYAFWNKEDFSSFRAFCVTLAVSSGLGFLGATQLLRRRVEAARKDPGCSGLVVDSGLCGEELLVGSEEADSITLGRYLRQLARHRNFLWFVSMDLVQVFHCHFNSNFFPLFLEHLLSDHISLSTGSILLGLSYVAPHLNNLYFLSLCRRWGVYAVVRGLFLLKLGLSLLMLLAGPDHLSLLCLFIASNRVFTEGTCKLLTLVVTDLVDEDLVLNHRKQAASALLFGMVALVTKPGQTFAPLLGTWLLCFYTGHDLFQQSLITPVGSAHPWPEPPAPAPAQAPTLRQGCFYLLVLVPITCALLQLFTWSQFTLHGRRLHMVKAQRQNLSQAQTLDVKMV

B1: anti-TMEM-180 antibody clone 101 (rat IgM) (antibody, V domains shown)
VH: QVQLKETGPGLVQPTQTLSITCTVSGFSLTSYYMQWVRQTPGKGLEWMGFIRSGGSTEYNSEFKSRLSISRDTSKNQVFLKMNSLKTEDTGVYYCARAFYGGYYFDYWGQGVMVTVSS
VL: DIVMTQSPTSISISVGERVTMNCKASQNVGSNVDWYQQKTGQSPKLLIYKASNRYTGVPDRFTGSGSGTDFTFTISNMQAEDLAVYYCMQSNTKYTFGAGTKLELK
notes: Rat IgM from hybridoma; the entries appear to include a leader and no cleavage site is stated
B2: anti-TMEM-180 antibody clone 212 (rat IgM) (antibody, V domains shown)
VH: EVQLVESGGGLVQPGNSLKLSCAASGFTFSDYAMAWVRQSPKKGLEWVATIIYDGSSTYYRDSVKGRFTISRDNAKSTLYLQMDSLRSEDTATYYCATHWYWYFDFWGPGTMVTVSS
VL: DIQMTQSPASLSASLGETVSIECLASEGISNDLAWYQQKSGKSPQLLIYAASRLQDGVPSRFSGSGSGTRYSLKISGMQPEDEADYFCQQSYKYPLTFGSGTKLEIK
notes: as for B1
B3: rat-human chimeric antibody clone 98 (antibody, V domains shown)
VH: QVQLKESGPGLVQPSQTLSLTCTVSGFSLTRYNVHWVRQPTGKGLEWMGVIWTGGSTDYNSALKSRLSISRDTSKSQVFLKMNSLQTEDIATYYCARDLGYWGQGVMVTVSS
VL: DIVMTQTPLSLSVAIGQSASISCKSSQSLKYRDGKTYLNWVFQSPGQSPKRLIYQVSKLDSGVPDRFSGTGSETDFTLKISRVEAEDLGVYYCCQGSYSPHTFGAGTKLELK
notes: Used as culture supernatant diluted two-fold; also called human chimeric IgG antibody
B4: anti-TMEM-180 antibody clone 129 (rat IgG) (antibody, V domains shown)
VH: QIQLVQSGPELKKPGESVKISCKASGYTFTDCALNWVKQAPGNGLKWMGWINTQTGKPTYADDFKQRFVFSLETSASTAYLQINNLNIEDTATYFCTREDYGYFDYWGQGVMVTVSS
VL: DIQMTQSPPSLSASLGDKVTITCQASQNINKFIAWYQQKPGKAPRHLVHYTSTLVSGTPSRFSGSGSGRDYSFSISNVESEDIASYYCLQYDNLRTFGGGTKLELK
notes: the entries appear to include a leader
B5: rat IgM antibody clone 98 (anti-TMEM-180 antibody clone 98) (antibody, V domains shown)
VH: B3 VH
VL: B3 VL
notes: Rat IgM from hybridoma, used as culture supernatant; also called IgM 98; Anti-TMEM-180 IgM rat antibody (clone 98)
B6: anti-TMEM-180 antibody clone 382 (rat IgG) (antibody, V domains shown)
VH: EVQLVESGGGLVQPGRSLKLSCAASGFTFSNYGMHWIRQAPTKGLEWVASISPSGGSTYYRDSVKGRFTISRDNAKSTLYLQMDSLRSEDTATYYCATSASITAYYYVMDAWGQGASVTVSS
VL: DIVMTQSPTSMSISVGDRVTMNCKASQNVGSNVDWYQQKTGQSPKLLIYKASNRYTGVPDRFTGSGSGTDFTFTISNMQAEDLAVYYCMQSNSYPPTFGGGTKLELR
notes: as for B4
B7: anti-TMEM-180 antibody clone 699 (rat IgM) (antibody, V domains shown)
VH: QVQLQQSGAELTKPGSSVKISCKASGYTFTSYDISWIKQRPGQALEWIGAINPGSGGTGYNEKFKGKATLTVDKSSSTAFMQLSSLTPEDTAVYYCARIHGGYRYWFAYWGQGTLVTVSS
VL: EIVLTQSPTTMAASPGEKVTITCRASSSVSYMHWFQQKSGTSPKPWIYDTSKLASGVPDRFSGSGSGTSYSLTISSMEAEDAATYYCLQRSSYPPTFGAGTKLELK
notes: as for B4
B8: anti-TMEM-180 antibody clone 1052 (rat IgM) (antibody, V domains shown)
VH: QVQLKESGPGLMQPSETLSLTCTVSGFSLTSNGVGWVRQPLGKGLVWMGTIWTGGGTNYNSGVQSRLSISRDTSKSQVFLKMNSLQPEDTGTYYCAREYMGFDYWGQGVMVTVSS
VL: NTVMTQSPTSMFTSVGDRVTMSCKASQNVGINVGWYQQKTGQSPKRLIYWASNRDTGVPDRFTGSGSGTDFTLTISNMQAEDPAIYYCLQHNSYPRTFGGGTKLELK
notes: as for B4
B9: anti-TMEM-180 antibody clone 1105 (rat IgM) (antibody, V domains shown)
VH: B8 VH with T53S, G62A, S70T, Y99E, M100K, D103A, V109T, M110L
VL: B8 VL with T2I, F12S, T97A, K107R
notes: as for B4

target: T1, human transmembrane protein 180 …; experiment: flow cytometry on colon cancer and brain tumor cell lines

| binding result | Binder |
| --- | --- |
| binds | B1 |
| binds | B2 |

target: T1, human transmembrane protein 180 …; experiment: flow cytometry, DLD-1 parent line against TMEM-180 knockout line; culture supernatant diluted two-fold
Method: The plate was centrifuged for 3 minutes at 440×g and 4° C. followed by removing the supernatant, adding antibody-producing hybridoma culture supernatant or antibody solution to the cell pellet at 50 μL/well and suspending therein. After allowing to react for 45 minutes on ice, the plate was washed three times with a mixture of 0.1% BSA, 2 mM EDTA and PBS at 200 μL/well. The supernatant was removed and secondary antibody was added to the cell pellet at 50 μL/well followed by suspending the cells therein. AlexaFluor 647 goat anti-rat IgG (H-L) (Life Technologies Corporation) was used for the secondary antibody after diluting 400-fold with a mixture of 0.1% BSA, 2 mM EDTA and PBS. After allowing to react for 45 minutes on ice, the plate was washed three times with a mixture of 0.1% BSA, 2 mM EDTA and PBS at 200 μL/well. […] The cells stained in this manner were measured using a flow cytometer such as the Guava easyCyte 8HT (Merck Millipore Corporation) followed by analysis of the resulting data using FlowJO (Tomy Digital Biology Co., Ltd.). […]
Flow cytometry was carried out in accordance with the procedure described in the above-mentioned section 3. […] Furthermore, antibody concentration in the hybridoma culture supernatant was measured by rat IgM-specific ELISA (Bethyl Laboratories).

| binding result | Binder |
| --- | --- |
| binds | B3 |

target: T1, human transmembrane protein 180 …; experiment: flow cytometry, hybridoma supernatant on DLD-1 cells (selection of clones)

| binding result | Binder |
| --- | --- |
| binds | B4 |
| binds | B5 |
| binds | B6 |
| binds | B7 |
| binds | B8 |
| binds | B9 |

— US20170260284A1 (NATIONAL CANCER CENTER, published 2017)
